Data on 55 molecules can be found in PMC12416549 (2024).

The chains are these.
T1: TNFR1 (Homo sapiens, UniProt P19438)
T1 chain: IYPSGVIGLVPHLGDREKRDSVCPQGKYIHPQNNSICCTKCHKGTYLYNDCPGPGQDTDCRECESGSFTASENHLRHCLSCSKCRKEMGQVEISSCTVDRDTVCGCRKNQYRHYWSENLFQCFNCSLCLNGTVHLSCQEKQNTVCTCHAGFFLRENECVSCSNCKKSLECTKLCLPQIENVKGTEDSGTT

B1: K100Q (designed binder)
chain: SMEEEVEKAAKEYEKKKKEAIEKHLEKLKAKDKEAAERFLKELEEAAKEYAKDEAKTMSEEEAKRRAKKYKEKVLLSELSEEEQKEIKEAEEKLVRTILQYVEEAAK
B2: E22M (designed binder)
chain: B1 chain with E22M, Q100K
B3: E22N (designed binder)
chain: B1 chain with E22N, Q100K
B4: E62G (designed binder)
chain: B1 chain with E62G, Q100K
B5: L28K (designed binder)
chain: B1 chain with L28K, Q100K
B6: K73W (designed binder)
chain: B1 chain with K73W, Q100K
B7: E61I (designed binder)
chain: B1 chain with E61I, Q100K
B8: A20E (designed binder)
chain: B1 chain with A20E, Q100K
B9: K15S (designed binder)
chain: B1 chain with K15S, Q100K
B10: K41Q (designed binder)
chain: B1 chain with K41Q, Q100K
B11: A46R (designed binder)
chain: B1 chain with A46R, Q100K
B12: Y70P (designed binder)
chain: B1 chain with Y70P, Q100K
B13: D53V (designed binder)
chain: B1 chain with D53V, Q100K
B14: K88Q (designed binder)
chain: B1 chain with K88Q, Q100K
B15: K100M (designed binder)
chain: B1 chain with Q100M
B16: R66E (designed binder)
chain: B1 chain with R66E, Q100K
B17: T97K (designed binder)
chain: B1 chain with T97K, Q100K
B18: E86I (designed binder)
chain: B1 chain with E86I, Q100K
B19: E4K (designed binder)
chain: B1 chain with E4K, Q100K
B20: E72C (designed binder)
chain: B1 chain with E72C, Q100K
B21: S77W (designed binder)
chain: B1 chain with S77W, Q100K
B22: H24A (designed binder)
chain: B1 chain with H24A, Q100K
B23: E78W (designed binder)
chain: B1 chain with E78W, Q100K
B24: L75A (designed binder)
chain: B1 chain with L75A, Q100K
B25: E78R (designed binder)
chain: B1 chain with E78R, Q100K
B26: A63S (designed binder)
chain: B1 chain with A63S, Q100K
B27: A55V (designed binder)
chain: B1 chain with A55V, Q100K
B28: E4C (designed binder)
chain: B1 chain with E4C, Q100K
B29: E60C (designed binder)
chain: B1 chain with E60C, Q100K
B30: I98K (designed binder)
chain: B1 chain with I98K, Q100K
B31: E19V (designed binder)
chain: B1 chain with E19V, Q100K
B32: E89H (designed binder)
chain: B1 chain with E89H, Q100K
B33: E22D (designed binder)
chain: B1 chain with E22D, Q100K
B34: E34A (designed binder)
chain: B1 chain with E34A, Q100K
B35: Q84L (designed binder)
chain: B1 chain with Q84L, Q100K
B36: K100P (designed binder)
chain: B1 chain with Q100P
B37: I87M (designed binder)
chain: B1 chain with I87M, Q100K
B38: Y101D (designed binder)
chain: B1 chain with Q100K, Y101D
B39: E61F (designed binder)
chain: B1 chain with E61F, Q100K
B40: E91I (designed binder)
chain: B1 chain with E91I, Q100K
B41: K64T (designed binder)
chain: B1 chain with K64T, Q100K
B42: E103G (designed binder)
chain: B1 chain with Q100K, E103G
B43: L25C (designed binder)
chain: B1 chain with L25C, Q100K
B44: A51P (designed binder)
chain: B1 chain with A51P, Q100K
B45: I87A (designed binder)
chain: B1 chain with I87A, Q100K
B46: K68G (designed binder)
chain: B1 chain with K68G, Q100K
B47: K107T (designed binder)
chain: B1 chain with Q100K, K107T
B48: A46V (designed binder)
chain: B1 chain with A46V, Q100K
B49: K41V (designed binder)
chain: B1 chain with K41V, Q100K
B50: E7N (designed binder)
chain: B1 chain with E7N, Q100K
B51: E83T (designed binder)
chain: B1 chain with E83T, Q100K
B52: A67Y (designed binder)
chain: B1 chain with A67Y, Q100K
B53: K71Y (designed binder)
chain: B1 chain with K71Y, Q100K
B54: K88V (designed binder)
chain: B1 chain with K88V, Q100K
B55: K48D (designed binder)
chain: B1 chain with K48D, Q100K

Changes are numbered by the printed parent chain. Names and notes keep the numbering of the source.

This test has as its target T1, TNFR1. Kind of test: yeast display SC50.
For the molecule B1, the “apparent Kd (screen)” value was 0.539 nM.
For B2, the “apparent Kd (screen)” value is 0.539 nM.
B3: the “apparent Kd (screen)” value came to 0.869 nM.
B4: the “apparent Kd (screen)” value stood at 2.25 nM.
Regarding B5, the “apparent Kd (screen)” value was determined as 1.54 nM.
On to B6, for which the “apparent Kd (screen)” value was 15.2 nM.
Regarding B7, the “apparent Kd (screen)” value turned out to be 1.54 nM.
Consider B8, for which the “apparent Kd (screen)” value worked out at 1.16 nM.
B9: the “apparent Kd (screen)” value stood at 0.653 nM.
For B10, the “apparent Kd (screen)” value came out at 0.718 nM.
Consider B11, for which the “apparent Kd (screen)” value is 1.54 nM.
Regarding B12, the “apparent Kd (screen)” value is 5.31 nM.
With B13 the figure was 12.5 nM; with B14, 0.49 nM.
B15: the “apparent Kd (screen)” value is 1.05 nM.
On to B16, for which the “apparent Kd (screen)” value came to 18.3 nM.
For B17, the “apparent Kd (screen)” value was 0.539 nM.
Under B18 stands 1.69 nM.
Under B19 stands 1.86 nM; under B20, 1.05 nM.
Consider B21, for which the “apparent Kd (screen)” value was determined as 1.05 nM.
For the molecule B22, the “apparent Kd (screen)” value amounted to 1.05 nM.
As for B23, the “apparent Kd (screen)” value is 2.73 nM.
On to B24, for which the “apparent Kd (screen)” value stood at 0.405 nM.
B25: the “apparent Kd (screen)” value was 1.86 nM.
On to B26, for which the “apparent Kd (screen)” value was 3.99 nM.
Under B27 stands 3 nM; under B28, 1.27 nM.
Regarding B29, the “apparent Kd (screen)” value came to 1.05 nM.
Take B30: the “apparent Kd (screen)” value stood at 4.83 nM.
Consider B31, for which the “apparent Kd (screen)” value stood at 0.446 nM.
Regarding B32, the “apparent Kd (screen)” value amounted to 1.69 nM.
Consider B33, for which the “apparent Kd (screen)” value came out at 0.49 nM.
Under B34 stands 1.05 nM; under B35, 2.48 nM; under B36, 3 nM.
Under B37 stands 10.4 nM; under B38, 0.446 nM.
For B39, the “apparent Kd (screen)” value came out at 0.718 nM.
Regarding B40, the “apparent Kd (screen)” value stood at 7.78 nM.
With B41, the “apparent Kd (screen)” value is 1.4 nM.
As for B42, the “apparent Kd (screen)” value was 0.539 nM.
With B43 the figure was 1.4 nM; with B44, 6.43 nM; with B45, 13.8 nM.
Take B46: the “apparent Kd (screen)” value amounted to 1.27 nM.
Turning to B47, the “apparent Kd (screen)” value was 0.869 nM.
For the molecule B48, the “apparent Kd (screen)” value worked out at 2.48 nM.
With B49, the “apparent Kd (screen)” value amounted to 0.446 nM.
Under B50 stands 1.27 nM; under B51, 0.49 nM.
For the molecule B52, the “apparent Kd (screen)” value was determined as 22.2 nM.
Under B53 stands 1.05 nM; under B54, 0.79 nM.
For B55, the “apparent Kd (screen)” value was 0.49 nM.
